# Laboratory results taken from the DeepSol protein solubility set.
# Assay: soluble on expression in E. coli; label from the status in PepcDB or PDB records
row,Sequence,soluble on expression in E. coli
1,MTLISPELKTQGFYASSYKGTDLIGLTKHYFREKHMKQLMLTLGIVNTYDKIKVLDAHYRAIARAAPICHAFGFHLALYDFPFKMTAEELVAFVMEKTTIGESGSYLKILYEKNHLSVSDLPKKGFPSQFGETVITTSKPDPKRKVMPVKIAEEALHNRSFLFLVGLGHKGLPKELFERGKYHLDITSKGLSLETCTAIGAVPAHLAGLMENLRCKK,not soluble
2,MGSDKIHHHHHHMLKCSICINDERITRILIVDGRPICKECKVFLEHPPDKEKIKKELEEILSKVDKAIVAYSGGKDSIVALYLAKEKYSIDVEAVMVDHGFIAPQAIKNAKNVAKYLDVPLTIIKRDYSDIFREALLKAKSPCRKCSRRTMEILRKYALKKGYRYMITGHELPFGHHPYRLMSGGIIQVRILSLMSEEERMKILKKLPVELPELPGYTSNCLILGPALQRFWERHGYSFEHRRIAALVRYGLLNKEKALKKVQKPEVPQWQWELVKKKLKLEDGF,not soluble
3,MSVGYDRLKTSSLAELRAAIRSGAYRSHTAGLGQGYLQANLAILPEAYALDFMRYCQRNPKPCPLIGVSDTGNPMMFTLGRDIDIRTDVPAYNVYRDGRLDSVSADITEDWRDDLVVFALGCSFTFEHAVMRAGVALWHVDNDRTVPMFRSNIETVPAGPFSGKMVVSMRAVPEDRVAEVAEISRAYPLAHGAPVYWGDPAGLGIADIMSPDWGDPAPLGPGEVPMFWACGVTPQVAIEAARLPLCITHKPGHMLITDVAEDAEVPVVETAQDKRLEHHHHHH,soluble
4,MKNTEIRKNIFPVGFYDDIHPDFSVNFQMNRCYTMTNDDVMLKEMREISPSIHNYEEFIEKFLELYNKALNEGHKLRAAYYLRTAEFYMTADHPQKQNYRKQFISLMQEYFNISDEQPYKVPYENGFLPAYRFTSEAPKGTIVMFGGFDSYVEEMFKMALFLKEAGYDVVFFDGPGQGSALEDYKIPMTHEWEKPVKSILDYFELDDVTLLGISLGGYLTVRAAAFEKRVHRVIADDILSNFYEVVLNTLPSQLKEKVNSLMSDGNEQEVNILFKDLMKKSLMVEWAINQGMHITGSKTPYEFLNKILLYNTSKISEKLEQDVLLMAAQEDHYIPLNQFFDQSKSLINVRSLTTRMFTRKETAQNHCQSGNLGLAFEVIANWIEQIQK,soluble
5,MFGFSNSDISVSSGHTSHLDEVLPQSMYMVDADGRMVRWSPWFRDRIAGFSDAEMASTDFLELIHPEDRALVRQRMRKILDQGVQDSLEVRIFLKGGPAFRWFLLMANRYEYAGHYFITGTGIDIT,not soluble
6,MAKNIQAIRGMNDYLPGETAIWQRIEGTLKNVLGSYGYSEIRLPIVEQTPLFKRAIGEVTDVVEKEMYTFEDRNGDSLTLRPEGTAGCVRAGIEHGLLYNQEQRLWYIGPMFRHERPQKGRYRQFHQLGCEVFGLQGPDIDAELIMLTARWWRALGISEHVTLELNSIGSLEARANYRDALVAFLEQHKEKLDEDCKRRMYTNPLRVLDSKNPEVQALLNDAPALGDYLDEESREHFAGLCKLLESAGIAYTVNQRLVRGLDYYNRTVFEWVTNSLGSQGTVCAGGRYDGLVEQLGGRATPAVGFAMGLERLVLLVQAVNPEFKADPVVDIYLVASGADTQSAAMALAERLRDELPGVKLMTNHGGGNFKKQFARADKWGARVAVVLGESEVANGTAVVKDLRSGEQTAVAQDSVAAHLRTLLG,soluble
7,MGSDKIHHHHHHMSSPFDYFVVFAEMRTGSNFLEANLNALDGVACVGEAFNPHFIGYPNKTEILEVSQDMRDADPQCLIDAVRDARGVLAGFRFFHDHDPRVLDLVLSDPRCAKIILTRNPLDSYVSWKIAKETGQWKLTNIKRRKEAQARFDAEEFARHVEALQDFQVFLLNSLQRSGQTPFYVAYEDLQDLSVMNGLAQWLGVSARLEQLDDSLKRQNPSPVTSKVVNAGEMVEALSGLDRFNLTRTPNFEPRRGPAVPTYVTGAVTPLIYLPVRGGPEDEVRRWMADLDGVVDAALGTGLNQKQVRGWLKGNEGHRAFTVLRHPLARAHSAFCHRILNKGPGCFTKIRNTLRRQFSLPIPEGTPGLDYGRADHRAAFEAFLEFVRMNLAGQTAIRIDGSWCSQAQALSSFAEFVSPDLILREDEIATDLPSLARRFGHAEPPEPPRAAPDTPIPLSDIYDDALEALAADVYQRDYIVFGFGKWAGGQA,not soluble
8,MPKSEIRKLLQEIKKQVDNPGNSSTTEIKKMASEAGIDEQTAEEIYHLLTEFYQAVEEHGGIEKYMHSNISWLKIELELLSACYQIAILEDMKVLDISEMLSLNDLRIFPKTPSQLQNTYYKLKKELIQVEDIPKNKPGRKRKTQKNTKKEKTNIFGKVVPALEHHHHHH,soluble
9,MKFFVFALILALMLSMTGADSHAKRHHGYKRKFHEKHHSHRGYRSNYLYDNLEHHHHHH,not soluble
10,MSTSRDRVRQALSHQGSDRIPVDFGATAVTGIHCRVVEALRKHYGLSYKPVKIVDTFQMLGEVDRDLADAMGVDCIGVGGTRDIFDHDTECMHEQVTPWGQKVLVPIQLDLTQDKEGDVYVYAGGDKNYPPSAVMPNGCFFINAIERQQPIDEDKLNPMDNLEEFNSITDEELDVYKKKVNEASATGRAVVASFGGTALGDVAFVPGMGLKEPKGIRSVVEWYMSTVMRQEYLHEIFRRQTDIAIANYEKLWAVLGDKVDVVLTCGTDFGSQESQFCSVEVFNELWLPHYRRMNDWIHEHTTWKVFKHSCGAIVPILPGLIKAGFDIINPVQINAKDMDSGMLKREFGSHLTFWGGGVDTQKMLPFGTPDEIRRHVLGQCEILGKDGGFVFNSVHNIQANVPVENVIAMLDALKTVLEHHHHHH,not soluble
11,MGHHHHHHSHMRRAELAGLKTMAWVPAESAVEELMPRLLPVEPCDLTEGFDPSVPPRTPQEYLRRVQIEAAQCPDVVVAQIDPKKLKRKQSVNISLSGCQPAPEGYSPTLQWQQQQVAQFSTVRQNVNKHRSHWKSQQLDSNVTMPKSEDEEGWKKFCLGEKLCADGAVGPATNESPGIDYVQIGFPPLLSIVSRMNQATVTSVLEYLSNWFGERDFTPELGRWLYALLACLEKPLLPEAHSLIRQLARRCSEVRLLVDSKDDERVPALNLLICLVSRYFDQRDLADEPS,not soluble
12,SGSSTGDLVTRIQSAHRFDHDALFRFAADNVSGFPTNPSQFKVSQFGHGQSNPTFLIEVGSGSSLKRYVLRKKPPGKLLQSAHAVDREFQVLRALGEHTQVPVPKVFCLCTDPAVIGTAFYIMEFMEGRIFIDPKLPNVAPERRNAIYRATAKALASLHSADVDAIGLEKYGRRGNYCKRQIDRWFKQYLASTSEGKPERNPKMFELVDWLRKNIPAEDSTGATSGLVHGDFRIDNLVFHPSEDRVIGIIDWELSTLGNQMCDVAYSCMHYIVNVQLDKEHVSEGFETTGLPEGMLSMPEFLLEYCSASGKPWPAANWKFYVAFSLFRAASIYTGVYSRWLMGNASAGERARNTGVQANELVESALGYIARENVLPEHPPSVQRDVSPSYESLVDGSGRFIPNRKVLELRQKLIKFMETHIYPMENEFSKLAQSDMRWTVHPQEEKLKEMAKREGLWNLFVPVDSAARARRELAATENKHNLSGKSFDQLFGEGLTNLEYGYLCEIMGRSVWAPQVFNCGAPDTGNMEVILRYGNKEQISEWLIPLLEGRIRSGFAMTEPQVASSDATNIECSIRRQGDSYVINGTKWWTSGAMDPRCRVLILMGKTDFNAPKHKQQSMILVDMRTPGISVKRPLTVFGFDDAPHGHAEISFENVVVPAKNILLGEGRGFEIAQGRLGPGRLHHCMRLIGAAERGMELMAQRALSRKTFGKFIAQHGSFVSDLAKLRVELEGTRLLVLEAADHLDKFGNKKARGILAMAKVAAPNMALKVLDTAIQVHGAAGVSSDTVLAHLWATARTLRIADGPDEVHLGTIGKLELQRASKL,soluble
13,MTISVEKPIFEEEVSAFEKSGDNIGELKLDGGFSMPKMDTNDDEAFLAPEMNAFGRQFRDYDVESERQKGVEEFYRLQHINQTVDFVKKMRAEYGKLDKMVMSIWECCELLNEVVDESDPDLDEPQIQHLLQSAEAIRKDYPNEDWLHLTALIHDLGKVITLPQFGGLPQWAVVGDTFPVGCAFDESNVHHKYFVENPDFHNETYNTKNGIYSEGCGLNNVMMSWGHDDYMYLVAKENGSTLPSAGQFIIRYHSFYPLHTAGEYTHLMNEEDKENLKWLHVFNKYDLYSKSKVHVDVEKVKPYYMSLIKKYFPENLRW,soluble
